Test [1] concerns the target Cav3.2 T-type calcium channel α 1H subunit (UniProt O95180).
The target is the same in test [2]. This is another data set of the same source.

Chain of UniProt O95180 (O95180 whole entry): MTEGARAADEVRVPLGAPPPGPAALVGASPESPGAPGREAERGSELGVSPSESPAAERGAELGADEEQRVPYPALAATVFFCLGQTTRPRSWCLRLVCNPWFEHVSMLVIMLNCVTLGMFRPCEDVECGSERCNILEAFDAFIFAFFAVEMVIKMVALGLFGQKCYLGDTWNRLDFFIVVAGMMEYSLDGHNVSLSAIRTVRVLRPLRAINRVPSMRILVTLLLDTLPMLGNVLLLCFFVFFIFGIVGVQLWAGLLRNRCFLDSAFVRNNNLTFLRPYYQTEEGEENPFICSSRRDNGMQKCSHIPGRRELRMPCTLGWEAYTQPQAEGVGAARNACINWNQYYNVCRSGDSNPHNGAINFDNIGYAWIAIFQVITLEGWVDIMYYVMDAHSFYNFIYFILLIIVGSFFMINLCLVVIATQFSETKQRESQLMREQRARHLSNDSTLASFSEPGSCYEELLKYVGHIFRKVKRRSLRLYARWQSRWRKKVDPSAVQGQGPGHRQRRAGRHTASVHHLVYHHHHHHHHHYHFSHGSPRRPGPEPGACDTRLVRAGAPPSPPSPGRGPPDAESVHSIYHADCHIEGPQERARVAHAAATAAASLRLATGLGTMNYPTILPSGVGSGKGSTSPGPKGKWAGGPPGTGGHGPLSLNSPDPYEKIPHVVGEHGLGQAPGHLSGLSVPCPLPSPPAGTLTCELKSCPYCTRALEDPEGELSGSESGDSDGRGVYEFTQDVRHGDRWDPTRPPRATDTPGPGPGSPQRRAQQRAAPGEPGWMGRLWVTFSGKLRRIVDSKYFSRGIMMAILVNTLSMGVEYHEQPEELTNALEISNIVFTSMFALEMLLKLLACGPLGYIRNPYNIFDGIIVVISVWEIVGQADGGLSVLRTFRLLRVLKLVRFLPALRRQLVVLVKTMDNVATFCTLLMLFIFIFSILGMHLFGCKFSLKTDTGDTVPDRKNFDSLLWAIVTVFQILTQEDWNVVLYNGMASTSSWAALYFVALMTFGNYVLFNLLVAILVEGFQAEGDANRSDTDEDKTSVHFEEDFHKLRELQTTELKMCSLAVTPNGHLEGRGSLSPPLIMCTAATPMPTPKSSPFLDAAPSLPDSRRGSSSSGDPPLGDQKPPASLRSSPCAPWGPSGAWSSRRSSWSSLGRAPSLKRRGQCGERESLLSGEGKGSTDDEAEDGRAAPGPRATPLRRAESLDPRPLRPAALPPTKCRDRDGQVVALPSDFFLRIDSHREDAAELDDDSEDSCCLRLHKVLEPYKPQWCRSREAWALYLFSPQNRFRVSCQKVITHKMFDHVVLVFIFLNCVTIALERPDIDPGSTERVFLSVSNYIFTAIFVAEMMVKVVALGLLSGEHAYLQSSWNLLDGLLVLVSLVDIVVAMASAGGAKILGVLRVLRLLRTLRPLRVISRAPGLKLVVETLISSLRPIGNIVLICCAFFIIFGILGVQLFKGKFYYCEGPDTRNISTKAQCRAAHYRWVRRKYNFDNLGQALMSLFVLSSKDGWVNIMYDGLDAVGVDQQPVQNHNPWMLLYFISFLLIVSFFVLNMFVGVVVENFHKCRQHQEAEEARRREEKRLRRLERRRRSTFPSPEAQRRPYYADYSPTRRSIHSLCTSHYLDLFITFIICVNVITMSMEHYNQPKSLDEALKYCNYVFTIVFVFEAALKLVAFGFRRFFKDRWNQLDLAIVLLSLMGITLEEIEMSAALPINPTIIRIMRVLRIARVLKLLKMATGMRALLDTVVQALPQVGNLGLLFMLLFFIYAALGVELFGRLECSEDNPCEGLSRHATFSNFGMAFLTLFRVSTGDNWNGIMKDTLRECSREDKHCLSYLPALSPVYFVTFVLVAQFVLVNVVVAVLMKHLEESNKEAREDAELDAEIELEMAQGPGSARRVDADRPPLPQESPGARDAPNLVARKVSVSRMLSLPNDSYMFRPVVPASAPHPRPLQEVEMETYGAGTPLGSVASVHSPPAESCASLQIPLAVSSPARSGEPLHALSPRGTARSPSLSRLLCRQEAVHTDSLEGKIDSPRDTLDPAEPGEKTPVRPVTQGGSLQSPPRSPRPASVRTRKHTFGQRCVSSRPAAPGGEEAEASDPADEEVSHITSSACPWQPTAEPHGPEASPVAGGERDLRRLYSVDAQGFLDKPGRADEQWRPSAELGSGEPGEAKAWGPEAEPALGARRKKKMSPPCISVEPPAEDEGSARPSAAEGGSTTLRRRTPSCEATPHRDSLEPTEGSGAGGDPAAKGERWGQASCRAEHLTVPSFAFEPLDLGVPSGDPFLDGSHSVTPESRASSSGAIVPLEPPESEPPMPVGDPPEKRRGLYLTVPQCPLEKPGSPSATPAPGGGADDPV

Take “ΔKelch, truncated KLHL1 mutant lacking the Kelch domains (domain or fragment)”: the percentage of increase in calcium influx through Cav3.2 with respect to control, square action potential (SQAP), first stimulus in test [1] was found to be 25 % increase. Moreover, in test [2], the percentage of increase in calcium influx through Cav3.2 with respect to control, SQAP with shorter depolarization (0.5 ms at +50 mV); not a rescue of the ΔKelch effect stood at 38 % increase and the percentage of increase in calcium influx through Cav3.2 with respect to control, SQAP with shorter hyperpolarization (6 ms at -90 mV); not a rescue of the ΔKelch effect worked out at 31 % increase.

The values above are taken from article PMC3401526.
